For two molecules, specific binding in % of ^125I-OI-3 after pre-treatment (no pretreatment = 100%), Ka and Kd results are on record in patent US20160206764A1 (ONCOINVENT, published 2016).

The target in test [1] is CD146 (melanoma cell adhesion molecule (MCAM), cell surface glycoprotein MUC18), endogenous on human tumor cell lines (human) (UniProt P43121). In words: MelJRpost3.3 cells pre-treated with OJ97cMUC18; competitor/tracer ^125I-OI-3.
Test [2] concerns the target T1, CD146 (melanoma cell adhesion molecule (MCAM), cell surface glycoprotein MUC18), endogenous on human tumor … (human, UniProt P43121 24-646).
T1 construct: whole, on cells; Also used here for the endogenous protein in lysates and tissue sections of these cells (Western blot, immunoprecipitation, IHC); also called Mel-CAM
In words: saturation binding of ^125I-OI-3 to Mel 3.3 melanoma cells, Ka=1/Kd.

Test [3] has as its target T1, CD146 (melanoma cell adhesion molecule …). In words: saturation binding of ^125I-OI-3 to Mel 3.3 melanoma cells, Scatchard plot.
The target is the same in test [4]. In words: saturation binding of ^125I-OI-3 to Mel 3.3 melanoma cells, interpolation of binding plot at half βmax.

“commercial murine monoclonal anti-CD146 (OJ79c MUC18) (antibody)”: in test [1], the specific binding in % of ^125I-OI-3 after pre-treatment (no pretreatment = 100%) worked out at 101%.

B1: OI-3 murine monoclonal antibody (antibody, V domains shown)
VH: EVQLQQSGPELVKTGASVKISCKASGYSFTGYYIHWVKQSHGKSLEWIGYISNYNGATTYSQEFKGKATFTVDRSSRIAYMQFTGLTSEDSAVYYCAGNSWGDWYFDVWGAGTTVTVSS
VL: DVVMTQTPLSLPVSLGDQASISCRSSQSLVHSNGNTYLHWYLQKPGQSPKLLIYKVSNRFSGVPDRFSGSGSGTDFTLKISRVEAEDLGVYFCSQSTHVSTFGGGTKLEIK
notes: also called ^177Lu-OI-3
What is called Kd is a measure of binding affinity in units of concentration. In test [2], B1 showed a Ka of about 3.2e+08 M⁻¹. The Kd in test [3] was about 3.1 nM; in test [4], 3.1 nM.
